# Assay results as given in patent US20160264649A1.
# How the values were obtained:
# Experiment in all cases: cell-based or functional assay
# [1] = target: HIV-1 MGRM-A-014 Env (HIV-1)
# [2] = target: HIV-1 MGRM-AG-013 Env (HIV-1)
# [3] = target: HIV-1 MGRM-A-005 Env (HIV-1)
# [4] = target: HIV-1 Env of isolate MG RM-C-020 (subtype C) (HIV-1)
# [5] = target: HIV-1 MGRM-A-012 Env (HIV-1)
# [6] = target: HIV-1 Env of isolate MG RM-C-026 (subtype C) (HIV-1)
# [7] = target: HIV-1 MGRM-AE-007 Env (HIV-1)
# [8] = target: HIV-1 MGRM-A-011 Env (HIV-1)
# [9] = target: HIV-1 MGRM-AG-012 Env (HIV-1)
# [10] = target: HIV-1 Env of isolate MG RM-C-023 (subtype C) (HIV-1)
# [11] = target: HIV-1 CMU02 Env (HIV-1)
# [12] = target: HIV-1 MGRM-A-006 Env (HIV-1)
# [13] = target: HIV-1 MGRM-AE-001 Env (HIV-1)
# [14] = target: HIV-1 94KE105 Env (HIV-1)
# [15] = target: HIV-1 MGRM-A-008 Env (HIV-1)
# [16] = target: HIV-1 MGRM-AG-003 Env (HIV-1)
# [17] = target: HIV-1 92RW008 Env (HIV-1)
# [18] = target: HIV-1 92UG037 Env (HIV-1)
# [19] = target: HIV-1 Env of isolate MG RM-C-019 (subtype C) (HIV-1)
# [20] = target: HIV-1 MGRM-AG-011 Env (HIV-1)
# [21] = target: HIV-1 92WR009 Env (HIV-1)
# [22] = target: HIV-1 92WR020 Env (HIV-1)
# [23] = target: HIV-1 MGRM-AG-009 Env (HIV-1)
# [24] = target: HIV-1 MGRM-AG-006 Env (HIV-1)
# [25] = target: HIV-1 MGRM-A-003 Env (HIV-1)
# [26] = target: HIV-1 MGRM-A-007 Env (HIV-1)
# [27] = target: HIV-1 MGRM-A-013 Env (HIV-1)
# [28] = target: HIV-1 93WR029 Env (HIV-1)
# [29] = target: HIV-1 92WR026 Env (HIV-1)
# [30] = target: HIV-1 92UG031 Env (HIV-1)
# [31] = target: HIV-1 Env of isolate MG RM-C-028 (subtype C) (HIV-1)
# [32] = target: HIV-1 MGRM-AG-008 Env (HIV-1)
# [33] = target: HIV-1 Env of isolate MG RM-C-025 (subtype C) (HIV-1)
# [34] = target: HIV-1 MGRM-AE-005 Env (HIV-1)
# [35] = target: HIV-1 Env of isolate MG RM-C-024 (subtype C) (HIV-1)
# [36] = target: HIV-1 92WR024 Env (HIV-1)
# [37] = target: HIV-1 MGRM-A-010 Env (HIV-1)
# [38] = target: HIV-1 MGRM-AE-006 Env (HIV-1)
# [39] = target: HIV-1 MGRM-AE-003 Env (HIV-1)
# [40] = target: HIV-1 MGRM-AG-002 Env (HIV-1)
# [41] = target: HIV-1 MGRM-A-002 Env (HIV-1)
# [42] = target: HIV-1 Env of isolate MG RM-C-027 (subtype C) (HIV-1)
# [43] = target: HIV-1 MGRM-A-001 Env (HIV-1)
# [44] = target: HIV-1 MGRM-A-004 Env (HIV-1)
# [45] = target: HIV-1 MGRM-AE-008 Env (HIV-1)
# [46] = target: HIV-1 MGRM-AE-002 Env (HIV-1)
# [47] = target: HIV-1 MGRM-A-009 Env (HIV-1)
# [48] = target: HIV-1 92TH021 Env (HIV-1)
# [49] = target: HIV-1 MGRM-AE-004 Env (HIV-1)
# [50] = target: HIV-1 MGRM-AG-005 Env (HIV-1)
# [51] = target: HIV-1 VLGCA1 Env (HIV-1)
# [52] = target: HIV-1 92WR021 Env (HIV-1)
# [53] = target: HIV-1 93UG077 Env (HIV-1)
# [54] = target: HIV-1 MGRM-AG-001 Env (HIV-1)
# [55] = target: HIV-1 94UG103 Env (HIV-1)
# [56] = target: HIV-1 Env of isolate MG RM-C-022 (subtype C) (HIV-1)
# [57] = target: HIV-1 Env of isolate MGRM-Chronic-B-004 (HIV-1)
# [58] = target: HIV-1 Env of isolate THR0.18 (HIV-1)
# [59] = target: HIV-1 Env of isolate 92 BR 020 (HIV-1)
# [60] = target: HIV-1 Env of isolate 93MW959 (HIV-1)
# [61] = target: HIV-1 Env of isolate MGRM-Chronic-B-023 (HIV-1)
# [62] = target: HIV-1 Env of isolate SF162 (HIV-1) (UniProt P19550)
# [63] = target: HIV-1 Env of isolate TRJ04551.58 (HIV-1)
# [64] = target: HIV-1 Env of isolate MGRM-Chronic-B-010 (HIV-1)
# [65] = target: HIV-1 Env of isolate MGRM-Chronic-B-001 (HIV-1)
# [66] = target: HIV-1 Env of isolate MGRM-Chronic-B-008 (HIV-1)
# [67] = target: HIV-1 Env of isolate MGRM-Chronic-B-017 (HIV-1)
# [68] = target: HIV-1 Env of isolate NL43 (HIV-1)
# [69] = target: HIV-1 Env of isolate MGRM-Chronic-B-012 (HIV-1)
# [70] = target: HIV-1 Env of isolate MGRM-Chronic-B-003 (HIV-1)
# [71] = target: HIV-1 Env of isolate JRFL (HIV-1)
# [72] = target: HIV-1 Env of isolate 6535.3 (HIV-1)
# [73] = target: HIV-1 Env of isolate APV_13 (HIV-1)
# [74] = target: HIV-1 Env of isolate APV_17 (HIV-1)
# [75] = target: HIV-1 Env of isolate TRO.11 (HIV-1)
# [76] = target: HIV-1 Env of isolate 93IN905 (HIV-1)
# [77] = target: HIV-1 Env of isolate QH0692.42 (HIV-1)
# [78] = target: HIV-1 Env of isolate CAAN.A2 (HIV-1)
# [79] = target: HIV-1 Env of isolate MGRM-Chronic-B-002 (HIV-1)
# [80] = target: HIV-1 Env of isolate MGRM-Chronic-B-011 (HIV-1)
# [81] = target: HIV-1 Env of isolate SC422661.8 (HIV-1)
# [82] = target: HIV-1 Env of isolate MGRM-Chronic-B-024 (HIV-1)
# [83] = target: HIV-1 Env of isolate APV_6 (HIV-1)
# [84] = target: HIV-1 Env of isolate VLGCB3 (HIV-1)
# [85] = target: HIV-1 Env of isolate 97ZA012 (HIV-1)
# [86] = target: HIV-1 Env of isolate MGRM-Chronic-B-018 (HIV-1)
# [87] = target: HIV-1 Env of isolate MGRM-Chronic-B-020 (HIV-1)
# [88] = target: HIV-1 Env of isolate 98IN022 (HIV-1)
# [89] = target: HIV-1 Env of isolate 93TH305 (HIV-1)
# [90] = target: HIV-1 Env of isolate PVO.4 (HIV-1)
# [91] = target: HIV-1 Env of isolate JRCSF (HIV-1) (UniProt P20871)
# Sequence of 5345_I01 (PGT-137) (antibody) (VH): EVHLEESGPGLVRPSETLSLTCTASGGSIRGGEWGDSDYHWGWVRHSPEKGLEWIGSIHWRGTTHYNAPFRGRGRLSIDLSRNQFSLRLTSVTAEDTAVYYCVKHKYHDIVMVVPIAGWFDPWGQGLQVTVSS
# Sequence of 5345_I01 (PGT-137) (antibody) (VL): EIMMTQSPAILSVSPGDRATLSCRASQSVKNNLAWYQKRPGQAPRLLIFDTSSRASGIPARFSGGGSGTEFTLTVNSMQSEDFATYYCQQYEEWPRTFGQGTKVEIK
substance,measurement,setting,value
5345_I01 (PGT-137) (antibody),IC50,[1],18.6 µg/mL
same,IC50,[2],> 50 µg/mL
same,IC50,[3],> 50 µg/mL
same,IC50,[4],> 50 µg/mL
same,IC50,[5],> 50 µg/mL
same,IC50,[6],0.011 µg/mL
same,IC50,[7],> 50 µg/mL
same,IC50,[8],> 50 µg/mL
same,IC50,[9],> 50 µg/mL
same,IC50,[10],0.23 µg/mL
same,IC50,[11],> 50 µg/mL
same,IC50,[12],> 50 µg/mL
same,IC50,[13],> 50 µg/mL
same,IC50,[14],18.5 µg/mL
same,IC50,[15],> 50 µg/mL
same,IC50,[16],> 50 µg/mL
same,IC50,[17],0.148 µg/mL
same,IC50,[18],> 50 µg/mL
same,IC50,[19],> 50 µg/mL
same,IC50,[20],> 50 µg/mL
same,IC50,[21],> 50 µg/mL
same,IC50,[22],0.005 µg/mL
same,IC50,[23],> 50 µg/mL
same,IC50,[24],28.3 µg/mL
same,IC50,[25],> 50 µg/mL
same,IC50,[26],> 50 µg/mL
same,IC50,[27],49.2 µg/mL
same,IC50,[28],> 50 µg/mL
same,IC50,[29],0.092 µg/mL
same,IC50,[30],> 50 µg/mL
same,IC50,[31],> 50 µg/mL
same,IC50,[32],> 50 µg/mL
same,IC50,[33],> 50 µg/mL
same,IC50,[34],> 50 µg/mL
same,IC50,[35],> 50 µg/mL
same,IC50,[36],> 50 µg/mL
same,IC50,[37],> 50 µg/mL
same,IC50,[38],> 50 µg/mL
same,IC50,[39],> 50 µg/mL
same,IC50,[40],> 50 µg/mL
same,IC50,[41],> 50 µg/mL
same,IC50,[42],> 50 µg/mL
same,IC50,[43],> 50 µg/mL
same,IC50,[44],> 50 µg/mL
same,IC50,[45],> 50 µg/mL
same,IC50,[46],> 50 µg/mL
same,IC50,[47],> 50 µg/mL
same,IC50,[48],> 50 µg/mL
same,IC50,[49],> 50 µg/mL
same,IC50,[50],> 50 µg/mL
same,IC50,[51],> 50 µg/mL
same,IC50,[52],3.52 µg/mL
same,IC50,[53],> 50 µg/mL
same,IC50,[54],> 50 µg/mL
same,IC50,[55],> 50 µg/mL
same,IC50,[56],> 50 µg/mL
PGT-128 monoclonal antibody (5114_A19),neutralization IC50,[57],0.009 µg/mL
same,neutralization IC50,[58],> 50 µg/mL
same,neutralization IC50,[59],0.009 µg/mL
same,neutralization IC50,[60],0.045 µg/mL
same,neutralization IC50,[61],> 50 µg/mL
same,neutralization IC50,[62],0.007 µg/mL
same,neutralization IC50,[63],0.019 µg/mL
same,neutralization IC50,[64],0.004 µg/mL
same,neutralization IC50,[65],> 50 µg/mL
same,neutralization IC50,[66],0.143 µg/mL
same,neutralization IC50,[67],> 50 µg/mL
same,neutralization IC50,[68],> 50 µg/mL
same,neutralization IC50,[69],0.026 µg/mL
same,neutralization IC50,[70],0.007 µg/mL
same,neutralization IC50,[71],0.007 µg/mL
same,neutralization IC50,[72],0.011 µg/mL
same,neutralization IC50,[73],0.008 µg/mL
same,neutralization IC50,[74],0.016 µg/mL
same,neutralization IC50,[75],0.018 µg/mL
same,neutralization IC50,[76],0.009 µg/mL
same,neutralization IC50,[77],0.029 µg/mL
same,neutralization IC50,[78],1.48 µg/mL
same,neutralization IC50,[79],0.036 µg/mL
same,neutralization IC50,[80],0.02 µg/mL
same,neutralization IC50,[81],1.58 µg/mL
same,neutralization IC50,[82],> 50 µg/mL
same,neutralization IC50,[83],0.007 µg/mL
same,neutralization IC50,[84],0.012 µg/mL
same,neutralization IC50,[85],0.019 µg/mL
same,neutralization IC50,[86],0.02 µg/mL
same,neutralization IC50,[87],0.007 µg/mL
same,neutralization IC50,[88],0.014 µg/mL
same,neutralization IC50,[89],0.006 µg/mL
same,neutralization IC50,[90],0.005 µg/mL
same,neutralization IC50,[91],0.003 µg/mL
